Assay results from patent US20250145724A1 (TWIST BIOSCIENCE, published 2025).

Tests used:
hA1 receptor = molecular target: T1, hA1 receptor (human, UniProt P30542 1-326); experiment: In vitro specificity, flow cytometry MFI at 100 nM IgG on hA1
T1 construct: whole, on cells
T1 sequence (looked up): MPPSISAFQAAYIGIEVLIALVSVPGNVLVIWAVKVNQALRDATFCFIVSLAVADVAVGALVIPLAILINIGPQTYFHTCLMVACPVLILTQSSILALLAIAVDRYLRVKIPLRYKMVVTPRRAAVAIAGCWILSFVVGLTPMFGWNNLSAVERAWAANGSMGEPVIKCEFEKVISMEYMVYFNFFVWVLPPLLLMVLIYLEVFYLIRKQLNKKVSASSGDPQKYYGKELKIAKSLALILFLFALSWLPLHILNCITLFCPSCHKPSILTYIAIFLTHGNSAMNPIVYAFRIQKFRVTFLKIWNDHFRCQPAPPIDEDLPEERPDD

hA2b receptor = molecular target: T2, hA2b receptor (human, UniProt P29275 1-332); experiment: In vitro specificity, flow cytometry MFI at 100 nM IgG on hA2b
T2 construct: whole, on cells; also called adenosine A2B receptor
T2 sequence (looked up): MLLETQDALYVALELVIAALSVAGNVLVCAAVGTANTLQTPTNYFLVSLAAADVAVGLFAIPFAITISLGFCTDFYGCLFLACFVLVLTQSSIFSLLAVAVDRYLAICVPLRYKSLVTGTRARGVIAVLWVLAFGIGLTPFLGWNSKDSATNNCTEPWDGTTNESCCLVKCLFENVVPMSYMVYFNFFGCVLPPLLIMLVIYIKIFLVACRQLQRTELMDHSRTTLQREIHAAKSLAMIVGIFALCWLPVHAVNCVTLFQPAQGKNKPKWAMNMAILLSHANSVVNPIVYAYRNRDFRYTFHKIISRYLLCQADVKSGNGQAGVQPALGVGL

hA3 receptor = molecular target: T3, hA3 receptor (human, UniProt P0DMS8 1-318); experiment: In vitro specificity, flow cytometry MFI at 100 nM IgG on hA3
T3 construct: whole, on cells
T3 sequence (looked up): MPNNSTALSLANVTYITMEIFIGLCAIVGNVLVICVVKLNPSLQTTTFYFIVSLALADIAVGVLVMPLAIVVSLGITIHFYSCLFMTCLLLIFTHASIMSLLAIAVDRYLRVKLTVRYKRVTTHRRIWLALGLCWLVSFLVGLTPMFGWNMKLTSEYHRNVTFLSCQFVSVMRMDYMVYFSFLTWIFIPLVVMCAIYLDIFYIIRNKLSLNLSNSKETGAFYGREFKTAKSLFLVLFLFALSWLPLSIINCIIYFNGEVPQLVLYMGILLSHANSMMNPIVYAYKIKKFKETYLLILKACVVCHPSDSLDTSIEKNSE

Measured: binding result

B1: A2A-81 (antibody, V domains shown)
VH: QVQLQESGPGLVKPSGTLSLTCAVSGGSISSSNWWSWVRQPPGKGLEWIGEIYHSGSTNYNPSLKSRVTISVDKSKNQFSLKLGSVTAADTAVYYCAREVVSGLYGTIFDYWGQGTLVTVSS
VL: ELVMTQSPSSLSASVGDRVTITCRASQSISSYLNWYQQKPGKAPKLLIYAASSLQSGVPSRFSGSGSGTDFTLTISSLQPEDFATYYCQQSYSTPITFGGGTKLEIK
notes: Tested as IgG
no binding (tested: 100 nM): all assays above
